We go through six molecules from publication PMC9035715, “Regulatory subunit NEMO promotes polyubiquitin-dependent induction of NF-κB through a targetable second interaction with upstream activator IKK2” (The Journal of Biological Chemistry, 2022).

What all share (settings): both partners purified
Test [1] deals with T1, linear tetra-ubiquitin (Ub4), M1-linked (UniProt P0CG48 1-76; P0CG48 1-76; P0CG48 1-76; P0CG48 1-76).
T1 construct: ubiquitin, copy 1 of four moieties covalently linked N-terminal to C-terminal on one chain (M1 linked); ubiquitin, copy 2 of four; ubiquitin, copy 3 of four; ubiquitin, copy 4 of four; also called linear poly-Ub; methionine-linked Ub4 chain; source: recombinant (pET24d construct), purified; not shown: His6, N-terminal, kept
Nature of the test: SEC; Superose6 Increase 10/300 GL; 25 mM Tris–HCl pH 8.0, 250 mM NaCl, 2 mM DTT, 5% glycerol; 0.2 ml/min, 22 °C; peak fractions on Coomassie-stained SDS-PAGE. Background: In gel filtration, larger molecules generally elute earlier.

Test [2] addresses T1, linear tetra-ubiquitin (Ub4), M1-linked. Nature of the test: pull-down; Ub4 recovered with GST-NEMO^241–419 from mixtures with HA-IKK2 HEK293T lysate, with or without TAT peptides (200–25 μM), 2 h at 4 °C; Western blot. In general terms: Immunoblotting shows a protein as a band on a membrane.
For test [3] the target is unchanged. Nature of the test: pull-down; purified GST-NEMO fusions mixed with purified IKK proteins in the presence of Ub4, 1 h at 4 °C, then glutathione–agarose beads 2 h at 4 °C; 25 mM Tris–HCl pH 7.5, 150 mM NaCl, 1 mM EDTA, 0.5% NP-40, 0.55% Triton X-100, 5% glycerol, 1 mM DTT; four washes; Western blot.

T1 sequence (P0CG48 1-304, one chain of several): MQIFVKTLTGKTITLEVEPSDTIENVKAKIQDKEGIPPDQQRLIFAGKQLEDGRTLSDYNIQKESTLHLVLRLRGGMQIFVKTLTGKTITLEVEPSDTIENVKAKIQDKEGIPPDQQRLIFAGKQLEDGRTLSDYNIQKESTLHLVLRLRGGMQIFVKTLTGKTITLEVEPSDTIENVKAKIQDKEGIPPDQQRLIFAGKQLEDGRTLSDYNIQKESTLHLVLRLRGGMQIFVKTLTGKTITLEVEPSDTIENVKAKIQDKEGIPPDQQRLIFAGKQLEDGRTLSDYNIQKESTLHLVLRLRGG

B1: GST-NEMO^241–350 (domain or fragment, human, UniProt Q9Y6K9 241-350, looked up)
chain: YDNHIKSSVVGSERKRGMQLEDLKQQLQQAEEALVAKQEVIDKLKEEAEQHKIVMETVPVLKAQADIYKADFQAERQAREKLAEKKELLQEQLEQLQREYSKLKASCQES
notes: source: E. coli Rosetta (DE3), purified (glutathione–agarose); not shown: GST, N-terminal, kept
As for B1, the binding result in test [1] is listed as “binds”.

B2: GST-NEMO^241–419 (domain or fragment, human, UniProt Q9Y6K9 241-419, looked up)
chain: YDNHIKSSVVGSERKRGMQLEDLKQQLQQAEEALVAKQEVIDKLKEEAEQHKIVMETVPVLKAQADIYKADFQAERQAREKLAEKKELLQEQLEQLQREYSKLKASCQESARIEDMRKRHVEVSQAPLPPAPAYLSSPLALPSQRRSPPEEPPDFCCPKCQYQAPDMDTLQIHVMECIE
notes: also called CC2-ZF; source: E. coli Rosetta (DE3), purified (glutathione–agarose); not shown: GST, N-terminal, kept
Take B2: in test [2], the binding result was “binds”.

B3: GST-NEMO^111–419 (domain or fragment, human, UniProt Q9Y6K9 111-419, looked up)
chain: KLDLKRQKEQALREVEHLKRCQQQMAEDKASVKAQVTSLLGELQESQSRLEAATKECQALEGRARAASEQARQLESEREALQQQHSVQVDQLRMQGQSVEAALRMERQAASEEKRKLAQLQVAYHQLFQEYDNHIKSSVVGSERKRGMQLEDLKQQLQQAEEALVAKQEVIDKLKEEAEQHKIVMETVPVLKAQADIYKADFQAERQAREKLAEKKELLQEQLEQLQREYSKLKASCQESARIEDMRKRHVEVSQAPLPPAPAYLSSPLALPSQRRSPPEEPPDFCCPKCQYQAPDMDTLQIHVMECIE
notes: also called truncated NEMO (lacking the KBD); source: E. coli Rosetta (DE3), purified (glutathione–agarose); not shown: GST, N-terminal, kept
B3: the binding result in test [3] is reported as “binds”.

B4: GST-NEMO^241–375 (domain or fragment, human, UniProt Q9Y6K9 241-375, looked up)
chain: YDNHIKSSVVGSERKRGMQLEDLKQQLQQAEEALVAKQEVIDKLKEEAEQHKIVMETVPVLKAQADIYKADFQAERQAREKLAEKKELLQEQLEQLQREYSKLKASCQESARIEDMRKRHVEVSQAPLPPAPAYL
notes: as for B1
As for B4, the binding result in test [1] is on record as “binds”.

B5: GST-NEMO^241–383 (domain or fragment, human, UniProt Q9Y6K9 241-383, looked up)
chain: YDNHIKSSVVGSERKRGMQLEDLKQQLQQAEEALVAKQEVIDKLKEEAEQHKIVMETVPVLKAQADIYKADFQAERQAREKLAEKKELLQEQLEQLQREYSKLKASCQESARIEDMRKRHVEVSQAPLPPAPAYLSSPLALPS
notes: as for B1
On to B5, for which the binding result in test [1] is given as “binds”.

B6: GST-NEMO^241–390 (domain or fragment, human, UniProt Q9Y6K9 241-390, looked up)
chain: YDNHIKSSVVGSERKRGMQLEDLKQQLQQAEEALVAKQEVIDKLKEEAEQHKIVMETVPVLKAQADIYKADFQAERQAREKLAEKKELLQEQLEQLQREYSKLKASCQESARIEDMRKRHVEVSQAPLPPAPAYLSSPLALPSQRRSPPE
notes: as for B1
For B6, in test [1], the binding result is “binds”.
